From article PMC10397247 come the findings set out here.

For one assay, the target named is T1, 4H891-AA.
T1 chain: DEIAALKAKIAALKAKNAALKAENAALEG
Kind of assay: two-hybrid library CCmax.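 Also: natural log of median RNA to DNA barcode read ratio; higher means stronger binding.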 The following applies: mean of both orientations.

The target of another assay is T2, 4H570-AA.
T2 chain: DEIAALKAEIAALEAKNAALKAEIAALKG
Kind of assay: two-hybrid library CCmax.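 Also: natural log of median RNA to DNA barcode read ratio; higher means stronger binding.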 The following applies: mean of both orientations.

Another assay deals with T3, 4H3120-AA.
T3 chain: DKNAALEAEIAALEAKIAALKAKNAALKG
Kind of assay: two-hybrid library CCmax.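 Also: natural log of median RNA to DNA barcode read ratio; higher means stronger binding.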

In the next assay the target is T4, 4H3410-AA.
T4 chain: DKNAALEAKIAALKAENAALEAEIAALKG
Description: two-hybrid library CCmax.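 Also: natural log of median RNA to DNA barcode read ratio; higher means stronger binding.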 The following applies: mean of both orientations.

The next assay deals with T5, 4H536-AA.
T5 chain: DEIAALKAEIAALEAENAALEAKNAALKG
Description: two-hybrid library CCmax.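 Also: natural log of median RNA to DNA barcode read ratio; higher means stronger binding.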 The following applies: mean of both orientations.

For the next assay, the target named is T6, 4H3395-AA.
T6 chain: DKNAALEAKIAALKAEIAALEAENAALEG
Description: two-hybrid library CCmax.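 Also: natural log of median RNA to DNA barcode read ratio; higher means stronger binding.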 The following applies: mean of both orientations.

Another assay addresses T7, 4H3865-AA.
T7 chain: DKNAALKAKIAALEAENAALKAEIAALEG
Kind of assay: two-hybrid library CCmax. The following applies: mean of both orientations.

A further assay concerns the target T8, 4H458-AA.
T8 chain: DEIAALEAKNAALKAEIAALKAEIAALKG
Kind of assay: two-hybrid library CCmax. The following applies: mean of both orientations.

In a further assay the target is T9, 4H850-AA.
T9 chain: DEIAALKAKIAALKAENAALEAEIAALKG
Kind of assay: two-hybrid library CCmax. The following applies: mean of both orientations.

A further assay has as its target T10, 4H3165-AA.
T10 chain: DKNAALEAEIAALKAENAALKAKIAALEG
Description: two-hybrid library CCmax. The following applies: mean of both orientations.

The next assay addresses T11, 4H629-AA.
T11 chain: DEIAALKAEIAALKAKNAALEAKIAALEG
Description: two-hybrid library CCmax. The following applies: mean of both orientations.

A further assay addresses T12, 4H3753-AA.
T12 chain: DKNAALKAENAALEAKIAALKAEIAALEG
Description: two-hybrid library CCmax. The following applies: mean of both orientations.

Another assay has as its target T13, 4H3697-AA.
T13 chain: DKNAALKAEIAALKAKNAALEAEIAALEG
Description: two-hybrid library CCmax. The following applies: mean of both orientations.

The next assay has as its target T14, 4H797-AA.
T14 chain: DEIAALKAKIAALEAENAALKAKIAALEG
Description: two-hybrid library CCmax. The following applies: mean of both orientations.

The target in another assay is T15, 4H3381-AA.
T15 chain: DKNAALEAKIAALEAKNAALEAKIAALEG
Kind of assay: two-hybrid library CCmax. The following applies: mean of both orientations.

In the next assay the target is T16, 4H485-AA.
T16 chain: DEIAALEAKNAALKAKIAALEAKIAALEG
Kind of assay: two-hybrid library CCmax. The following applies: mean of both orientations.

Another assay concerns the target T17, 4H909-AA.
T17 chain: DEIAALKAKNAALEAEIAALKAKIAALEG
Description: two-hybrid library CCmax. The following applies: mean of both orientations.

Another assay has as its target T18, 4H745-AA.
T18 chain: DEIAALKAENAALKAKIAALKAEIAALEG
Description: two-hybrid library CCmax. The following applies: mean of both orientations.

The next assay has as its target T19, 4H710-AA.
T19 chain: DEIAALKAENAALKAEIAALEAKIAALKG
Kind of assay: two-hybrid library CCmax. The following applies: mean of both orientations.

The next assay addresses T20, 4H94-AA.
T20 chain: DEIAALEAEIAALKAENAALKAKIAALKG
Description: two-hybrid library CCmax. The following applies: mean of both orientations.

A further assay has as its target T21, 4H3130-AA.
T21 chain: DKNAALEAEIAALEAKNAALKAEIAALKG
Description: two-hybrid library CCmax. The following applies: mean of both orientations.

In the next assay the target is T22, 4H3590-AA.
T22 chain: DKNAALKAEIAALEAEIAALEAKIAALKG
Kind of assay: two-hybrid library CCmax. The following applies: mean of both orientations.

The target in another assay is T23, 4H930-AA.
T23 chain: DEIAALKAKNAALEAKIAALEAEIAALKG
Description: two-hybrid library CCmax. The following applies: mean of both orientations.

Another assay has as its target T24, 4H63-AA.
T24 chain: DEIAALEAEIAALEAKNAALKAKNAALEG
Description: two-hybrid library CCmax. The following applies: mean of both orientations.

A further assay concerns the target T25, 4H3915-AA.
T25 chain: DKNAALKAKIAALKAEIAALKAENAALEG
Description: two-hybrid library CCmax.

Another assay has as its target T26, 4H446-AA.
T26 chain: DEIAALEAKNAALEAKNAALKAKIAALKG
Description: two-hybrid library CCmax. The following applies: mean of both orientations.

The target of another assay is T27, 4H3974-AA.
T27 chain: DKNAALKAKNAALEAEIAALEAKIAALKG
Description: two-hybrid library CCmax. The following applies: mean of both orientations.

Another assay has as its target T28, 4H432-AA.
T28 chain: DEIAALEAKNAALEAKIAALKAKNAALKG
Kind of assay: two-hybrid library CCmax. The following applies: mean of both orientations.

The target in the next assay is T29, APC9291-AA.
T29 chain: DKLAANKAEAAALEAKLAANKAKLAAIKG
Kind of assay: two-hybrid library CCmax. The following applies: mean of both orientations.

A further assay addresses T30, APC9182-AA.
T30 chain: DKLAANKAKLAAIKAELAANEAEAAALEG
Kind of assay: two-hybrid library CCmax.

Another assay concerns the target T31, APC9806-AA.
T31 chain: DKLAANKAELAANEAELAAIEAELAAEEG
Kind of assay: two-hybrid library CCmax. The following applies: mean of both orientations.

The target in the next assay is T32, 4H906-bH.
T32 chain: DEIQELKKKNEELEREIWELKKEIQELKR
Kind of assay: two-hybrid library CCNG1.

In the next assay the target is T33, 4H850-bH.
T33 chain: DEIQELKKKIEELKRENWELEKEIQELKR
Description: two-hybrid library CCNG1.

Another assay deals with T34, 4H908-bH.
T34 chain: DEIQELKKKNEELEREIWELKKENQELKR
Description: two-hybrid library CCNG1.

The target in another assay is T35, 4H918-bH.
T35 chain: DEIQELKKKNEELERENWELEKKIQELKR
Description: two-hybrid library CCNG1.

The target in another assay is T36, 4H953-bH.
T36 chain: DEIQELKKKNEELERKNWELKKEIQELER
Description: two-hybrid library CCNG1.

The target of another assay is T37, 4H967-bH.
T37 chain: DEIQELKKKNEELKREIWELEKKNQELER
Kind of assay: two-hybrid library CCNG1.

B1: 4H3120-AA (peptide)
chain: DKNAALEAEIAALEAKIAALKAKNAALKG
As to B1, the interaction score with 4H891-AA is -0.991; with 4H570-AA, -0.988; with 4H3120-AA, 1.15; with 4H3410-AA, -1.25; with 4H536-AA, 1.51; in the assay with 4H3395-AA, 2.17. The interaction score in the assay with 4H3865-AA was -1.52; with 4H458-AA it was -1.3; in the assay with 4H850-AA, -0.918; with 4H3165-AA, -1.33; with 4H629-AA, -1.66; in the assay with 4H3753-AA, 0.619. In addition, the interaction score was -1.39 in the assay with 4H3697-AA; -1.9 with 4H797-AA; -1.79 with 4H3381-AA; -0.737 with 4H485-AA; -1.58 with 4H909-AA; -1.09 with 4H745-AA. Moreover, the interaction score with 4H710-AA is -1.56; with 4H94-AA, -1.07; with 4H3130-AA, -0.632; in the assay with 4H3590-AA, 1.08; in the assay with 4H930-AA, -1.5.

B2: 4H3915-AA (peptide)
chain: DKNAALKAKIAALKAEIAALKAENAALEG
As for B2, the interaction score was 0.485 with 4H63-AA; -0.838 in the assay with 4H3915-AA; -1.7 with 4H446-AA; -0.146 in the assay with 4H3974-AA; -1.16 with 4H432-AA.

B3: APC9182-AA (peptide)
chain: DKLAANKAKLAAIKAELAANEAEAAALEG
Consider B3, for which the interaction score is -1.98 with APC9291-AA, -1.77 with APC9182-AA and -1.59 in the assay with APC9806-AA.

B4: 4H850-bH (peptide)
chain: DEIQELKKKIEELKRENWELEKEIQELKR
On to B4, for which the figures for the interaction score with 4H906-bH and with 4H850-bH were -0.227 and 0.554, respectively.

B5: 4H908-bH (peptide)
chain: DEIQELKKKNEELEREIWELKKENQELKR
As for B5, the interaction score with 4H908-bH is 0.057; with 4H918-bH, -2.03; in the assay with 4H953-bH, -0.842; with 4H967-bH, -0.426.
